Measurements: patent publication US20260053882A1 (TRUSTEES OF PRINCETON UNIVERSITY, published 2026)
Numbering of substitutions follows the chain as printed. Numbers in names are those of the source.

T1: Epithelial Cell Adhesion Molecule (EpCAM), endogenous on human cell lines (human, UniProt P16422 24-314)
T1 construct: whole, on cells
T1 sequence (looked up): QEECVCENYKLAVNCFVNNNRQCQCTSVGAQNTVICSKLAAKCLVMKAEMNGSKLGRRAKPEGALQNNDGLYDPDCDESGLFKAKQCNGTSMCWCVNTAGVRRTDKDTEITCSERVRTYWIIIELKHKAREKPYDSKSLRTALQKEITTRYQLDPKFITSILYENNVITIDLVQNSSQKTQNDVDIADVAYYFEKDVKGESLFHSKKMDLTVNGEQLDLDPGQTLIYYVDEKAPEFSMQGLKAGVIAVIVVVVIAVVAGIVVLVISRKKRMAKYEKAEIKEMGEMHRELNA

B1: SpyTag003-AF594 (His6-SpyTag003-SUMO-Cys Alexa Fluor 594 conjugate) (other)
chain: MGSSHHHHHHSSGLVPRGSRGVPHIVMVDAYKRYKGSGESGMSDSEVNQEAKPEVKPEVKPETHINLKVSDGSSEIFFKIKKTTPLRRLMEAFAKRQGKEMDSLRFLYDGIRIQADQTPEDLDMEDNDIIEAHREQIGC
modifications: Alexa Fluor 594 C5 maleimide on the C-terminal Cys
notes: the SUMO is internal (His6-SpyTag003-SUMO-Cys) and is not cut off; also called fluorescently labeled probe
B2: SpyTag003-biotin (His6-SpyTag003-SUMO-Cys biotin conjugate) (other)
chain: B1 chain
modifications: biotin maleimide on the C-terminal Cys
notes: Conjugate of SpyTag003-Cys; also called biotinylated probe
B3: SpyTag003-DNP (His6-SpyTag003-SUMO-Cys dinitrophenol conjugate) (other)
chain: B1 chain
modifications: 2,4-dinitrophenyl-maleimide on the C-terminal Cys
notes: Conjugate of SpyTag003-Cys; also called SpyTag003 2,4-dinitrolphenol conjugate; dinitrophenyl probe
B4: SpyTag003^D117A-AF594 (His6-SpyTag003^D117A-SUMO-Cys Alexa Fluor 594 conjugate) (other)
chain: B1 chain with D29A
modifications: Alexa Fluor 594 C5 maleimide on the C-terminal Cys
B5: reconstituted SpyCatcher003 spliced from SpyN-αHER2 and SpyC-αEGFR (FLAG-αHER2-SpyCatcher003-αEGFR-Myc, NrdJ-1 splice product) (other)
chain: DYKDDDDKDLGKKLLEAARAGQDDEVRILMANGADVNAKDEYGLTPLYLATAHGHLEIVEVLLKNGADVNAVDAIGFTPLHLAAFIGHLEIAEVLLKHGADVNAQDKFGKTAFDISIGNGNEDLAEILQKLNGSTSGSVTTLSGLSGEQGPSGDMTTEEDSATHIKFSKRDEDGRELAGATMELRDSSGKTISTWISDGHVKDFYLYPGKYSFVETAAPDGYEVATPIEFTVNEDGQVTVDGEATEGDAHTGSTSGSDLGKKLLEAARAGQDDEVRILMANGADVNADDTWGWTPLHLAAYQGHLEIVEVLLKNGADVNAYDYIGWTPLHLAADGHLEIVEVLLKNGADVNASDYIGDTPLHLAAHNGHLEIVEVLLKHGADVNAQDKFGKTAFDISIDNGNEDLAEILQKLNEQKLISEEDL
notes: On cells it is held by its two DARPins on HER2 and EGFR; also called reconstituted SpyCather003; spliced SpyCatcher003
B6: reconstituted SpyCatcher003 with K31E, spliced from SpyN-αHER2(K31E) and SpyC-αEGFR (other)
chain: B5 chain with K169E
notes: K31 is counted on SpyCatcher003; ranges derived as for m26; also called defective POI; defective output
B7: αHER2-AF594 DARPin (αHER2-HA-Cys Alexa Fluor 594 conjugate) (designed binder)
chain: DLGKKLLEAARAGQDDEVRILMANGADVNAKDEYGLTPLYLATAHGHLEIVEVLLKNGADVNAVDAIGFTPLHLAAFIGHLEIAEVLLKHGADVNAQDKFGKTAFDISIGNGNEDLAEILQKLNGGYPYDVPDYAGGSC
modifications: Alexa Fluor 594 C5 maleimide on the C-terminal Cys
notes: His6-SUMO tag cut off with Ulp1; range derived by counting; also called targeting DARPin labeled with AF594
B8: SpyTag003-APEX2 (His6-SpyTag003-HA-APEX2) (other)
chain: MGSSHHHHHHSSGLVPRGSRGVPHIVMVDAYKRYKGSGESGYPYDVPDYASSGGKSYPTVSADYQDAVEKAKKKLRGFIAEKRCAPLMLRLAFHSAGTFDKGTKTGGPFGTIKHPAELAHSANNGLDIAVRLLEPLKAEFPILSYADFYQLAGVVAVEVTGGPKVPFHPGREDKPEPPPEGRLPDPTKGSDHLRDVFGKAMGLTDQDIVALSGGHTIGAAHKERSGFEGPWTSNPLIFDNSYFTELLSGEKEGLLQLPSDKALLSDPVFRPLVDKYAADEDAFFADYAEAHQKLSELGFADA
notes: Not SUMO-tagged
B9: αEpCAM-AF594 DARPin (αEpCAM-HA-Cys Alexa Fluor 594 conjugate) (designed binder)
chain: DLGKKLLEAARAGQDDEVRILVANGADVNAYFGTTPLHLAAAHGRLEIVEVLLKNGADVNAQDVWGITPLHLAAYNGHLEIVEVLLKYGADVNAHDTRGWTPLHLAAINGHLEIVEVLLKNVADVNAQDRSGKTPFDLAIDNGNEDIAEVLQKAAKLNGGYPYDVPDYAGGSC
modifications: Alexa Fluor 594 C5 maleimide on the C-terminal Cys
notes: as for B7
B10: αHER2-SpyN-eNrdJ-1N^cage Cys1-alkylated (other)
chain: DYKDDDDKDLGKKLLEAARAGQDDEVRILMANGADVNAKDEYGLTPLYLATAHGHLEIVEVLLKNGADVNAVDAIGFTPLHLAAFIGHLEIAEVLLKHGADVNAQDKFGKTAFDISIGNGNEDLAEILQKLNGSTSGSVTTLSGLSGEQGPSGDMTTEEDSATHIKFSKRDEDGRELAGATMELRDSSGKTISTWISDGHVKDFYLYPGKYCLVGSSEIITRNYGKTTIKEVVEIFDNDKNIQVLAFNTHTDNIEWAPIKAAQLTRPNAELVELEIDTLHGVKTIRVTPDHPVYTKNRGYVRADELTDDDELVVAIENLYGDEVNGYFQGMEAETYIGKLKSRAIVSNEDTYDIQTSTHNFFAND
modifications: Cys1 of eNrdJ-1N^cage alkylated with iodoacetamide (residue 331 of the printed SEQ ID NO 26)
notes: His6-SUMO tag cut off with Ulp1; range derived by counting; also called SpyN-αHER2 with Cys1-alkylated NrdJ-1N^cage

Tests used:
[1] = target: B5; test: confocal microscopy, K562 HER2+/EGFR+ cells treated with SpyN-αHER2 and SpyC-αEGFR (eNrdJ-1^cage), 100 nM probe
[2] = target: B5; test: western blot of K562 HER2+/EGFR+ cells treated with SMART-SpyCatcher
[3] = target: B5; test: confocal microscopy, K562 HER2+/EGFR+ cells treated with SMART-SpyCatcher, 100 nM SpyTag003-DNP
[4] = target: B5; test: labeled mutant probe on K562 HER2+/EGFR+ cells treated with SMART-SpyCatcher, washed, AF594 signal
[5] = target: B1; test: in vitro splicing of the C76V FKBP/FRB precursors with rapamycin, reaction with 2 µM SpyTag003-AF594, western blot
[6] = target: B1; test: flow cytometry, K562 HER2+/EGFR+ cells, SpyN-αHER2(K31E) + SpyC-αEGFR
[7] = target: T2, HER2, endogenous on human cell lines (human, UniProt P04626 23-1255); test: flow cytometry, 100 nM DARPin-AF594 on human cancer cell lines
T2 construct: whole, on cells

[8] = target: B5; test: western blot of K562 HER2+/EGFR+ cells treated with SMART-SpyCatcher and 300 nM SpyTag003-APEX2
[9] = target: T1, Epithelial Cell Adhesion Molecule …; test: flow cytometry, 100 nM DARPin-AF594 on human cancer cell lines
[10] = target: B1; test: confocal microscopy, K562 HER2+/EGFR+ cells; splicing-dead SpyN-αHER2 together with SpyC-αEGFR

B1: binds [1].

B2: binds [2].

B3: binds [3].

B4: no binding (tested: 100 nM) [4].

B5: binds [5].

B6: no binding (tested: 100 nM) [6].

B7: binds [7].

B8: binds [8].

B9: binds [9].

B10: no binding (tested: 100 nM) [10].
